# Test: soluble on expression in E. coli; label from the status in PepcDB or PDB records
row,Sequence,soluble on expression in E. coli
1,MGSDKIHHHHHHMDAFEKVRTRLETQPQEEYEVVNAEIKHGGFVYYQEGCCLVRSKDEEADSDNYEVLFNLEELKLDQPFIDCIRVAPDEKYVAAKIRTEDSETSTLVVVKLSDQPVMEASFPNVSSFEWVKDEEDEDVLFYTFQRNLRCHDVYRATFGDNKRNERFYTEKDPSYFVFLYLTKDSRFLTLNIMNKTTSEVWLIDGLSPWDPPVLIQKRIHGMLYYVEHRDDELYILTNVGEPTEFKLMRTAADAPAIMNWDLFFTMKRNTKVVDLDMFKDHCVLFLKHSNLLYVNVIGLADDSVRSLKLPPWACGFIMDTNSDPKNCPFQLCSPIRPPKYYTYKFAEGKLFEETGHEDPITKTSRVLRIEAKSKDGKLVPMTVFHKTDSEDLQRKPLLVHVYGAYGMDLKMNFRPEKRVLVDDGWILAYCHVRGGGELGLQWHADGRLTKKLNGLADLVACIKTLHSQGFSQPSLTTLSAFSAGGVLVGALCNSKPELLRAVTLEAPFLDVLNTMLDTTLPLTLEELEEWGNPSSDEKHKNYIKRYCPCQNIKPQHYPSVHITAYENDERVPLKGIVNYTEKLKEAVAEHTKGAGEGYQPPNIILDIQPGGNHVIEDSHKKITTQMKFLYEELGLDSTDAFEALKKYLKF,soluble
2,MGSDKIHHHHHHMDAKTIDNRIRRAFNGIRQAFRGKIARVKAAGGVQQIQVEGLEGETVQDLEHAENFGFTSNPPAGSDCVVVPLGGKTSHGIIVTTTNGAYRITGLAEGETAVYNADGAKMVLKKGRIIEIDCETLNIKAPGGVNIDAPNVGCTAQITAEGQINGNGGMAVKGGSGTSFTGNVQMVGDLDTTGKLTNNGKNVGSDHKHNGDSGGTTSDPL,not soluble
3,MGSDKIHHHHHHMDAPSTTPHDAVFKQFLMHAETARDFLEIHLPVELRELCDLNTLHLESGSFIEESLKGHSTDVLYSVQMQGNPGYLHVVIEHQSKPDKKMAFRMMRYSIAAMHRHLEADHDKLPLVVPILFYQGEATPYPLSMCWFDMFYSPELARRVYNSPFPLVDITITPDDEIMQHRRIAILELLQKHIRQRDLMLLLEQLVTLIDEGYTSGSQLVAMQNYMLQRGHTEQADLFYGVLRDRETGGESMMTLAQWFEEKGIEKGIQQGRQEVSQEFAQRLLSKGMSREDVAEMANLPLAEIDKVINLI,not soluble
4,MGSDKIHHHHHHMDDITPSDIQAQAIAAIRDWFHSRTDEQQVFRLFGFAGTGKSTVLKFALDDLGLSPHAEDRPGVVTATFTGKAALVLRRKGTPARTIHSLIYSVIEATDEEIEEAGKRITQAELNARGLIGFDRTAAEAAIEAMRQTLRDMKKPRFALNPDSPAASAKLIVLDEVSMVGDEMARDLMSFERPILVLGDPGQLPPIKGEGAFTQAAPDIMLTEIHRQAAESAIIRLATMAREGQPIGFGQYDDHAWKMRMADVTPQQALRGGQVICGRNTTRFQLNNALRRAAGFGGSYLPTGADEKVICLKNQNDLGLINGMFLTLADIVDEGSVYFSATVTDEVGTPIGPPAKDGKPGRLMLYKGHFEDHVALDPHRHDRDWRDKKKLTEATFGWAITCHKAQGSQWENVIVWDDGLGRTEQDRRRWLYTAITRAERGLVILA,not soluble
5,MGSDKIHHHHHHMDFFQSKFLYGKKQSQFGIFRMPRNTTNCPVVVTIHGGFWKAEYGLEEIVPLDEDLVRRGYATWNVEYRRIGENGGGWPGTFSDVIDAVNYLAFLKEDFPLDLSRVVILGHSAGGHLALWLASRWNTKQADQMENVLHTSIKAIISLAGVSNLEEMWRIESKGKTSNNVSSFLGGTPEEASDRYHLASPYELLPLHVRQILVHGGSDQEVPLDLTLGYYKKAIRLADDVGLISDSRSDHFDLIDPFSSIWLSSADSLKNIINS,not soluble
6,MGSDKIHHHHHHMDFLDFEKVFSFYSKATKKGFSPFFVPALEKAEEPAGNFFLDRKGNLFSIREDFTKTVLNHRKRYSPDSQIKVWYADFVYRYSGSDLVAEYQLGLEKVPRNSLDDSLEVLEIIVESASEFFEGPVIVEIGHTGVYEDLLKEIPKDLHEKVLNLIDTKNLAEIEFLSHMKKIDLSRVEKIIEDSIYRRSPEHLKTMDLPLSVREDLLSASSFLQEKFPTVSVEIDLTLARTIEEYCGLIFTIYDTSSSRLVAAGGEYTVNGEKGVGGSIFLEGKTC,not soluble
7,MGSDKIHHHHHHMDFWKCPHCGFVVSKTHQEMTQDQWSQLNSSWHHNFENNRESRTTNQPPYADQALVLAILKENDILDLDDGLDYAAGYGTFSKCLKKYFNIGIRIFDRYVHSSDEGMRYVAQKELSRYKLVINSAMFEHVLNRHALDEVNGLVKDDGVLMLHTVVCERIPKDPGWFYIDTMVHTALHTNKSMSILMDQWGYGASIYSPQAKSWFLFKRDNPLIDDLEAKVAGINHELQTTYLHYKRGFVDYWKGF,not soluble
